Measured values published in patent US20230183318A1 (published 2023).
Numbering of substitutions follows the chain as printed. In names and notes the source's numbering stands.

B1: aglycosylated PD-1 variant Q12 (JY_Q12), soluble His-tagged protein (receptor)
chain: LDSPDRPLDPPTISPALLVVTEGDQATFTCSFSQTSKSFVLNWYRISPSQQTDKLAAFPEDRSQPGQDTRFRVTQLPNGRDFHMSVVRARRQDSGTYLCVAISLAPKVQIKESLRAELRVTERRAEVPTAHPSPSPRPACQFQ
B2: Q18 (protein)
chain: LDSPDRPWNPPTISPALLVVTEGDQATFTCGLPQTSESFVLNWYRIGPSQQMDKLAAFPEDRSQPGQDTRFRVTQLPNGRDFHMSVVRARRQDSGTYLCVAISLAPKVQIKESLRAELRVTERRAEVRTAHPSPSPRSAGQFQ
B3: Q33 (protein)
chain: B1 chain with L8W, D9N, Q34R, K37E, R88G, R90Q, C140G
B4: Q10 (protein)
chain: B2 chain with G31S, P33S, G47S, V87D, T96S, R128P, S138P
B5: glycosylated PD-1 variant JY_Q12-2 (Q34N) (receptor)
chain: B1 chain with Q34N
modifications: sugar chain at N34 (N-linked glycosylation site restored, expressed in Expi293F)
B6: JY-Q12-4 (protein)
chain: B1 chain with Q92N
B7: glycosylated PD-1 variant JY_Q12-1 (Q25N) (receptor)
chain: B1 chain with Q25N
modifications: sugar chain at N25 (N-linked glycosylation site restored, expressed in Expi293F)
B8: glycosylated PD-1 variant JY_Q12-3 (Q50N) (receptor)
chain: B1 chain with Q50N
modifications: sugar chain at N50 (N-linked glycosylation site restored, expressed in Expi293F)

Each binder was assayed against T1, PD-L1-streptavidin (UniProt Q9NZQ7 19-238) (assay: BLI (BLItz)).
T1 sequence (Q9NZQ7 19-238): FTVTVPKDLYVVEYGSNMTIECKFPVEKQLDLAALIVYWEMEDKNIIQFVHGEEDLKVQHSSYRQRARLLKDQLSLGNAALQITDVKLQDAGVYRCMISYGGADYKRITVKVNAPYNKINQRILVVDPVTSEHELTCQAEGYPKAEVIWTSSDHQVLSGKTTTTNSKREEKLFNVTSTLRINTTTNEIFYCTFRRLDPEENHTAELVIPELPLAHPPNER

Compared with B1, B2 is 8.5-fold higher in Kd: 5.49 nM for the first, 46.9 nM for the second. The first binds more tightly here.

B3 and B4 are within 1.5-fold of each other in Kd: 35.1 nM for the first, 50.1 nM for the second.

Each binder was assayed against T1, PD-L1-streptavidin (assay: BLI (BLItz); Fig. 12).

B1 was tested, and the Kd was 5.49 nM.

Biological target: T1, PD-L1-streptavidin
Test: BLI (BLItz)
Remark: another data set of the same source

Going from B5 to B1, the Kd rises from 0.899 nM to 11 nM (12-fold).

Going from B6 to B7, the Kd falls from 17.3 nM to 7.38 nM (2.3-fold).

For B8, the Kd was 3.24 nM.
